# Test: yeast display, Sf9 membrane polyspecificity reagent, FACS + sequencing; frameworks hold sequencing errors
# Procedure, shortened: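 Using colony PCR, genes from sorted yeast display clones were amplified, then sequenced on MiSeq at 2 × 250 and filtered by CDR length. The clones had been stained with 10% biotinylated, detergent-solubilized Sf9 membrane reagent for 1 hour at 4 °C and sorted by FACS into low and high (top ~1%) gates on anti-HA and streptavidin fluorescence. Polyreactivity labels come from the gate of origin.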
row,Sequence,polyreactivity (PSR sort gate)
1,QVQLVESGGGLVQAGGSLRLSCAASGRTFVSYVMGLYRQAPGKERELVAAITWRGGSTYYADSVKGRFTISRDNAKNTVYLQMNSLKPEDTAVYYCNADYRYIWTYWGWTIYDYWGQGTQVTVSS,high polyreactivity
2,QVQLVESGGGLVQAGGSLRLSCAASGRTFVTNAMGWYRPAPGKERELVPAISSNGGSTYYADSVKGRFTISRDTAKNTVYLQMNSLKPEDTAVYYCNAEGQPLYWWDHGNYWGQGTQVTVSS,low polyreactivity
3,QVQLVESGGGLVQAGGSLRLSCAASGRTFVTYAMGWYRQAPGKERELVAGIRRGGSTYYADSVKGRFTISRDNAKNTVYLQMNSLKPDDPAVYDCAKTFYAHRAYTSYTARPYDYWGQGTQVTVSS,high polyreactivity
4,QVQLVESGGGLVQAGGSLRLSCAASGRTFVTYAMGWYRQAPGKERELVAVITNGGGTYYADSVKGRFTISRDNAKNTVYLQMNSLKPEDTALYYCNNDRYGLRRWVYSYLGGYDYWGQGTQVTVSS,low polyreactivity
5,QVQLVESGGGLVQAGGSLRLSCAASGRTFVTYVMGWYRQAPGKEREFVAAIRWSGGRTYYADSVKGRFTISRDNAKNTVYLQMNSLKPEDTAVYYCAAVYYDRSYRYEYWGQGTQVTVSS,high polyreactivity
6,QVQLVESGGGLVQAGGSLRLSCAASGRTFVYNAMGWYRQAPGKERELVAAIDGGGDRTYYADSVKGRFTISRDNAKNTVYLQMTSLNPEDTAVYYCARDPGDTYYYSYPEGDYWGQGTQVTVSS,low polyreactivity
7,QVQLVESGGGLVQAGGSLRLSCAASGRTFVYYAMGWYRQAPGKERELVASISSNGGTYYADSVKGRFTISRDNAKNTVYLQMNSLKPEDTAVYYCNAKRVARYQYGASYNYWGQGTQVTVSS,high polyreactivity
8,QVQLVESGGGLVQAGGSLRLSCAASGRTFVYYAMGWYRQAPGKERELVATITRSGGSTYYADSVKGRFTISRDNAKNTVYLQMNSLKPEDTAVYYCAVLYWRPGYDYWGQGTQVTVSS,high polyreactivity
9,QVQLVESGGGLVQAGGSLRLSCAASGRTFVYYAMGWYRQAPGTERELVAAISTGGSTNYADSVKGRFTISRDNAKNSVYLQMNSLKPEDTAVYYCAAQYYISISKYDYWGQGTQVTVSS,low polyreactivity
10,QVQLVESGGGLVQAGGSLRLSCAASGRTFVYYAMVWSRQAPGKEREFVAAISRSGGRTSYADSVKGRFTISRDNAKNTVYLQMNSLKPEDTAVYYCAAENRTQPTSREYYWGQGNQVTVSS,high polyreactivity
11,QVQLVESGGGLVQAGGSLRLSCAASGRTFVYYTRGWYRPAPGKERELVAAISWNGDDTYYADSVKGRFTISRDNAKNTVYLQMNSLKPEDTAVYYCAKESYTDYDTYYYWGQGTQVTVSS,low polyreactivity
12,QVQLVESGGGLVQAGGSLRLSCAASGRTFVYYVMGWYRQAPGKERELVAGISRGGSTDYADSVKGRFTISRDNAKNTVYLQMNSLKPEDTAVYYCNRLLRRHLYIFYYWGQGTQVTVSS,high polyreactivity
13,QVQLVESGGGLVQAGGSLRLSCAASGRTFWGYAMGWYRPAPGKERELVAAISSGGDTTYADSVKGRFTISRDNAKNTVYLQMNSLKPEDTAVFYCAADRWYSRYTRYGYWGQGTQVTVSS,low polyreactivity
14,QVQLVESGGGLVQAGGSLRLSCAASGRTFWNYAMGWYRQAPGKERELVAVIRFSDGSTYYADSVKGRFTISRDNAKNTVYLQMKSLKPEDTAVYYCGAKGQRRWGSGFDYWGQGTQVTVSS,low polyreactivity
15,QVQLVESGGGLVQAGGSLRLSCAASGRTFWPNVMGWYRQAPGKERELVAALTWGDASTYYADSVKGRFTISRDNAKYTVYLQMNSLKPEDTAVYYCAASDYRRTYDYWGQGTQVTVSS,low polyreactivity
16,QVQLVESGGGLVQAGGSLRLSCAASGRTFWPYAMGWYRQAPGKERELVAAITSDGSTTYADSVTGRFTISRDNAKNTVYLQMNSLTPEDTAVYYCAAYGYYYDQTIPMDYWGQGTQVTVSS,low polyreactivity
17,QVQLVESGGGLVQAGGSLRLSCAASGRTFWRNAMGWYRPAPGKERELVAVISVRGSSTSYADSVKGRFTISRDNAKNNVYFQMNILKPEDTGVYYCAAGRRYRSVGYGYWGQGTQLTVSS,high polyreactivity
18,QVQLVESGGGLVQAGGSLRLSCAASGRTFWRNAMGWYRQAPGKERELVAAISRGASTNYADSVKGRYTISRDNAKNTVYLQMNSLKPEDTAFYYCAARYYYRYNYWGQGTQVTVSS,high polyreactivity
19,QVQLVESGGGLVQAGGSLRLSCAASGRTFWRNAMGWYRQAPGKERELVAAISRGGSTKYADSVKGRFTISRDNAKNTVYLQMNSLKPEDTAVYYCAAATPGRYGYWGQGTQVTVSS,high polyreactivity
20,QVQLVESGGGLVQAGGSLRLSCAASGRTFWRYVMGWYRQAPGKERELVASITRSGGTTNYADSVKGRFTISRDIAKNTVYLQMNSLKPEDTAVYYCNARTVYSWSREYNYWGQGTQVTVSS,high polyreactivity
21,QVQLVESGGGLVQAGGSLRLSCAASGRTFWSYAMGWYRQAPGKERELVAAINSGGSTYYADSVKGRFTISRDNAKNTVYLQMNSLKPEDTAVYYFAADTWYGFDWGQGTQVTVSS,high polyreactivity
22,QVQLVESGGGLVQAGGSLRLSCAASGRTFWTYAMGWYRQAPGKERELVASISKSGGSTYADSVKGRFTISRDNAKNTVYLQMNSLKPEDTAVYVCAAYPYFSKGWGWYPYDYWGQGTQVTVSS,low polyreactivity

row,Sequence,polyreactivity (PSR sort gate)
1,QVQLVESGGGLVQAGGSLRLSCAASGRTFWVYAMGWYRQAPGKERELVAAINTGGSTTYADSVKGRFTISRDNAKNTVYLQMNSLKPEDTAVYYCAADTWWYGKYDYWGQGTQVTVSS,low polyreactivity
2,QVQLVESGGGLVQAGGSLRLSCAASGRTFWVYAMGWYRQAPGKERELVAAISWRAGSTYYADSVKGRFTISRDNAKNTVYLLMNSLKPEVTAVYYCAAETYTTLDYWGQGTQVTVSS,high polyreactivity
3,QVQLVESGGGLVQAGGSLRLSCAASGRTFWVYAMGWYRQAPGKERELVASISWSVGSTYYADSVKGRFTISRDNAKNTVYLQMNSLKPEDTAVYYCAVDPATNVEGDYWGQGTQVTVSS,low polyreactivity
4,QVQLVESGGGLVQAGGSLRLSCAASGRTFWYYAMGWYRPAPGKERELVATITGGARTTYADSVKGRFTISRDNAKNTVYLQMNSLKPEDTAVYYCARARNSVKRGYYYWGQGTQVTVSS,high polyreactivity
5,QVQLVESGGGLVQAGGSLRLSCAASGRTFWYYAMGWYRQAPGKEREFVAAISYSGDGTYYADSVKGRFTISRDNAKNTVYLQMNSLKPEDTAVYYCAAEWYDPTLPTAWSEYEYWGQGTQVTVSS,high polyreactivity
6,QVQLVESGGGLVQAGGSLRLSCAASGRTFWYYAMGWYRQAPGKERELVAASTYRGGSTYYADSVKGRFTISRDNVKNTVYLQMNSLKPEDTAVYYCAAPYGEDYWRQGTQVTVSS,high polyreactivity
7,QVQLVESGGGLVQAGGSLRLSCAASGRTFWYYAMGWYRQAPGKERELVATISYRGGSTYYADSVKGRFTISRDNAKNTVYLQMNSLKPEDTAVYYCAAKQWWGGRPKVDYWGQGTQVTVSS,high polyreactivity
8,QVQLVESGGGLVQAGGSLRLSCAASGRTFWYYAMGWYRQAPGKERELVAYADSVKGRFTISRDNAKNTVYLQMNSLIPEDTAVYYCAVGPVVWFSSSLYYTDYYYWGQGTQVTVSS,low polyreactivity
9,QVQLVESGGGLVQAGGSLRLSCAASGRTFWYYAMGWYRQSPGKERELVAVITSGSSTYYADSVKGRFTISRDNAKNTDYLQMTSLKPEDTAVYYCAVGRTYRRYSAASYNYWGQGTQVTVSS,high polyreactivity
10,QVQLVESGGGLVQAGGSLRLSCAASGRTFWYYPMGWYRQAPGKEREFVAAISWSGGSTYYADSVKGRFTISRDNAKNTVYLQMNSLKPEDTAVYYCAADRYDSSQFYYWGQGTQVTVSS,low polyreactivity
11,QVQLVESGGGLVQAGGSLRLSCAASGRTFWYYTMGWYRQAPGKERELVAAISGSGGRTYYADSVKGRFTISRDNAKNTVYLQMNSLKPEDTAVYYCAARRAYFVAYIYDRDYWGQGTQVTVSS,high polyreactivity
12,QVQLVESGGGLVQAGGSLRLSCAASGRTFWYYTMGWYRQAPGKERELVAAISSGGTTNYADSVKGRFTISRDNAKNTVYLQMNSLKPEDTAVYYCAAEANSGDGYYWGQGTQVTVSS,high polyreactivity
13,QVQLVESGGGLVQAGGSLRLSCAASGRTFWYYTMGWYRQAPGKERELVASISRVTSTYYADSVKGRLTISRDNAKNTVYLQMNSLKPEDTAVYYCAADRTRYYVGYRWTGNKMDYWGQGSQVTVSS,low polyreactivity
14,QVQLVESGGGLVQAGGSLRLSCAASGRTFWYYTMGWYRQAPGKEWELVAAIRASGGGTYADSVKGLFTISRDNAKNTVYLQMNSLNPEDTAVYYCAVRNVYGWYGSRDYWGQGTQVTVSS,high polyreactivity
15,QVQLVESGGGLVQAGGSLRLSCAASGRTFYANTMGWYRQAPGKERELVAGITSGGSTSYADSVKGRFTISRDNAKNTVYLQMNSLKPVDTAVYYCAAQFYRYTATGYYADGYWGQGTQVTVSS,low polyreactivity
16,QVQLVESGGGLVQAGGSLRLSCAASGRTFYAYAMGWYRQAPGKERELVAAITSGASTYYADSVKGRFTISRDNAKNTVYLQMISLKPEDTAVYYCAKRVRYYKPGYDYWGQGTQVTVSS,low polyreactivity
17,QVQLVESGGGLVQAGGSLRLSCAASGRTFYAYTMGWYRQAPGKERELVAAISSSGGSTYYADSVKGRFTISRDNAKNTVYLQMNSLKPEDTAVYYCAAVWYFNRRVSGYYYWGQGTQVTVSS,high polyreactivity
18,QVQLVESGGGLVQAGGSLRLSCAASGRTFYDNAMRWYRQAPGKERELDAAITNGGRTNYADSVKGRFTISRDNAKNTVYLQMNSLKPEDTAVYYCAADFWPWYRYYSGGVDYWGQGTQVTVSS,high polyreactivity
19,QVQLVESGGGLVQAGGSLRLSCAASGRTFYDYAMGWYRQAPGKEREFVARITYSGGGTYYADSVKGRFTISRDNAKNTVYLQMNSLKPEDTAVYYCARPFIRYLGLTRNGYTSDYWGQGTQVTVSS,high polyreactivity
20,QVQLVESGGGLVQAGGSLRLSCAASGRTFYDYAMGWYRQAPGKERELVAAITYRDGTTYYADSVKGRFTISRDNAKNTVYLQMNSLKPEDTAVYDCGKTYYYSLGHGYNYWGQGTQVTVSS,low polyreactivity
21,QVQLVESGGGLVQAGGSLRLSCAASGRTFYFNAMGWYRQAPGKERELVAGISGDGSTNYADSVKGRFTISRDNAKNTFYLQMNSLKPEDTAVYYCAKTMGSQSYDFDYWGQGTQVTVSS,low polyreactivity
